US20200262877A1, “ION CHANNEL-BINDING PEPTIDES AND METHODS OF USE THEREOF” (priority 2017, published 2020)

Legend:
[1] = target: T1, NR2B (Homo sapiens, UniProt Q13224); assay: Ion channel panel (IonWorks Barracuda): NR2B; type: cell-based; settings: 100% = no change, <100% = inhibition
T1 construct: host or cells: HEK293 or CHO
How it was run: (§1)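 Transfected HEK293 or CHO cells were exposed for at least 5 min to peptides at 200 nM and 20 μM final, tested in duplicate, in HEPES-buffered physiological saline. Activation was taken as peptide-plus-agonist current over control current ×100, and inhibition as 1 minus that ratio ×100. Each channel's control was its own reference compound.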

[2] = target: T2, α4β2 (Homo sapiens, UniProt P17787+P43681); assay: Ion channel panel (IonWorks Barracuda): α4β2; type: cell-based; settings: 100% = no change, <100% = inhibition
T2 construct: host or cells: HEK293 or CHO
How it was run: as §1

[3] = target: T3, Kir2.1 (Homo sapiens, UniProt P63252); assay: Ion channel panel (IonWorks Barracuda): Kir2.1; type: cell-based; settings: 100% = no change, <100% = inhibition
T3 construct: host or cells: HEK293 or CHO
How it was run: as §1

[4] = target: T4, Kv2.1 (Homo sapiens, UniProt Q14721); assay: cell-based; settings: 100% = no change, <100% = inhibition
T4 construct: host or cells: HEK293 or CHO
How it was run: as §1

[5] = target: T5, Cav2.2 (Homo sapiens, UniProt Q00975); assay: cell-based; settings: 100% = no change, <100% = inhibition
T5 construct: host or cells: HEK293 or CHO
How it was run: as §1

[6] = target: T6, Cav2.1 (Homo sapiens, UniProt O00555); assay: cell-based; settings: 100% = no change, <100% = inhibition
T6 construct: host or cells: HEK293 or CHO
How it was run: as §1

[7] = target: T7, 5HT3a (Homo sapiens, UniProt P46098); assay: Ion channel panel (IonWorks Barracuda): 5HT3a; type: cell-based
T7 construct: host or cells: HEK293 or CHO
T7 sequence (P46098 whole entry, looked up): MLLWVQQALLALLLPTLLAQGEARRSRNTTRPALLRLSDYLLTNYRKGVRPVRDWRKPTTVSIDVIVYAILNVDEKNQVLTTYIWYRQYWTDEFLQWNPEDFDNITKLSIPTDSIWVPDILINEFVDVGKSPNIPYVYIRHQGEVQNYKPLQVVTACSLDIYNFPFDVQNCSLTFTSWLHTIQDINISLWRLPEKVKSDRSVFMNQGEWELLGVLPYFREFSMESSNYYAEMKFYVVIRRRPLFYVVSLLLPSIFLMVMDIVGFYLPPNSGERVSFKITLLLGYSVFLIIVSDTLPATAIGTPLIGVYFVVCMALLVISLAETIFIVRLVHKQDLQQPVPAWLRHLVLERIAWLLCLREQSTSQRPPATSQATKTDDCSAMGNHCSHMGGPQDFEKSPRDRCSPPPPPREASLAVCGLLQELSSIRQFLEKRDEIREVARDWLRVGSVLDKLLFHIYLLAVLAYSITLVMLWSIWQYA
How it was run: as §1

[8] = target: T8, TRPV1 (Homo sapiens, UniProt Q8NER1); assay: Ion channel panel (IonWorks Barracuda): TRPV1; type: cell-based; settings: 100% = no change, <100% = inhibition
T8 construct: host or cells: HEK293 or CHO
How it was run: as §1

[9] = system: GABA; assay: Ion channel panel (IonWorks Barracuda): GABA; type: cell-based; settings: 100% = no change, <100% = inhibition
How it was run: as §1

[10] = target: T9, Nav1.7 (Homo sapiens, UniProt Q15858); assay: cell-based; type: cell-based; settings: 100% = no change; for Activity of Nav1.7 with peptide, expressed as a percentage of the reference compound: peptide at 0.2 μM; for Activity of Nav1.7 with peptide (percentage of the reference compound): peptide at 20 μM
T9 construct: host or cells: HEK293 or CHO

[11] = target: hERG (Homo sapiens, UniProt Q12809); assay: in vitro; settings: 100% = no change, <100% = inhibition
How it was run: as §1

[12] = target: Nav1.5 (Homo sapiens, UniProt Q14524); assay: in vitro; settings: 100% = no change; for Activity of Nav1.5 with peptide, expressed as a percentage of the reference compound: peptide at 0.2 μM; for Activity of Nav1.5 with peptide (percentage of the reference compound): peptide at 20 μM
How it was run: as §1

[13] = target: T10, NR2A (Homo sapiens, UniProt Q12879); assay: Ion channel panel (IonWorks Barracuda): NR2A; type: cell-based; settings: 100% = no change, <100% = inhibition
T10 construct: host or cells: HEK293 or CHO
How it was run: as §1

[14] = target: T11, α3β4 (Homo sapiens, UniProt P30926+P32297); assay: Ion channel panel (IonWorks Barracuda): α3β4; type: cell-based; settings: 100% = no change, <100% = inhibition
T11 construct: host or cells: HEK293 or CHO
How it was run: as §1

[15] = target: T12, TRPA1 (Homo sapiens, UniProt O75762); assay: Ion channel panel (IonWorks Barracuda): TRPA1; type: cell-based; settings: 100% = no change, <100% = inhibition
T12 construct: host or cells: HEK293 or CHO
How it was run: as §1

[16] = target: T13, Kv1.1 (Homo sapiens, UniProt Q09470); assay: cell-based; type: cell-based; settings: 100% = no change, <100% = inhibition
T13 construct: host or cells: HEK293 or CHO
How it was run: as §1

[17] = target: T14, Kv1.2 (Homo sapiens, UniProt P16389); assay: cell-based; type: cell-based; settings: 100% = no change, <100% = inhibition
T14 construct: host or cells: HEK293 or CHO
How it was run: as §1

[18] = target: T15, Kv1.3 (Homo sapiens, UniProt P22001); assay: cell-based; type: cell-based; settings: 100% = no change, <100% = inhibition
T15 construct: host or cells: HEK293 or CHO
How it was run: as §1

[19] = first of two Nav1.7 columns (probably TP1)
[20] = second of two Nav1.7 columns (probably TP2)
[21] = first of two Nav1.5 columns (probably TP1)
[22] = second of two Nav1.5 columns (probably TP2)

T9 sequence (Q15858 whole entry): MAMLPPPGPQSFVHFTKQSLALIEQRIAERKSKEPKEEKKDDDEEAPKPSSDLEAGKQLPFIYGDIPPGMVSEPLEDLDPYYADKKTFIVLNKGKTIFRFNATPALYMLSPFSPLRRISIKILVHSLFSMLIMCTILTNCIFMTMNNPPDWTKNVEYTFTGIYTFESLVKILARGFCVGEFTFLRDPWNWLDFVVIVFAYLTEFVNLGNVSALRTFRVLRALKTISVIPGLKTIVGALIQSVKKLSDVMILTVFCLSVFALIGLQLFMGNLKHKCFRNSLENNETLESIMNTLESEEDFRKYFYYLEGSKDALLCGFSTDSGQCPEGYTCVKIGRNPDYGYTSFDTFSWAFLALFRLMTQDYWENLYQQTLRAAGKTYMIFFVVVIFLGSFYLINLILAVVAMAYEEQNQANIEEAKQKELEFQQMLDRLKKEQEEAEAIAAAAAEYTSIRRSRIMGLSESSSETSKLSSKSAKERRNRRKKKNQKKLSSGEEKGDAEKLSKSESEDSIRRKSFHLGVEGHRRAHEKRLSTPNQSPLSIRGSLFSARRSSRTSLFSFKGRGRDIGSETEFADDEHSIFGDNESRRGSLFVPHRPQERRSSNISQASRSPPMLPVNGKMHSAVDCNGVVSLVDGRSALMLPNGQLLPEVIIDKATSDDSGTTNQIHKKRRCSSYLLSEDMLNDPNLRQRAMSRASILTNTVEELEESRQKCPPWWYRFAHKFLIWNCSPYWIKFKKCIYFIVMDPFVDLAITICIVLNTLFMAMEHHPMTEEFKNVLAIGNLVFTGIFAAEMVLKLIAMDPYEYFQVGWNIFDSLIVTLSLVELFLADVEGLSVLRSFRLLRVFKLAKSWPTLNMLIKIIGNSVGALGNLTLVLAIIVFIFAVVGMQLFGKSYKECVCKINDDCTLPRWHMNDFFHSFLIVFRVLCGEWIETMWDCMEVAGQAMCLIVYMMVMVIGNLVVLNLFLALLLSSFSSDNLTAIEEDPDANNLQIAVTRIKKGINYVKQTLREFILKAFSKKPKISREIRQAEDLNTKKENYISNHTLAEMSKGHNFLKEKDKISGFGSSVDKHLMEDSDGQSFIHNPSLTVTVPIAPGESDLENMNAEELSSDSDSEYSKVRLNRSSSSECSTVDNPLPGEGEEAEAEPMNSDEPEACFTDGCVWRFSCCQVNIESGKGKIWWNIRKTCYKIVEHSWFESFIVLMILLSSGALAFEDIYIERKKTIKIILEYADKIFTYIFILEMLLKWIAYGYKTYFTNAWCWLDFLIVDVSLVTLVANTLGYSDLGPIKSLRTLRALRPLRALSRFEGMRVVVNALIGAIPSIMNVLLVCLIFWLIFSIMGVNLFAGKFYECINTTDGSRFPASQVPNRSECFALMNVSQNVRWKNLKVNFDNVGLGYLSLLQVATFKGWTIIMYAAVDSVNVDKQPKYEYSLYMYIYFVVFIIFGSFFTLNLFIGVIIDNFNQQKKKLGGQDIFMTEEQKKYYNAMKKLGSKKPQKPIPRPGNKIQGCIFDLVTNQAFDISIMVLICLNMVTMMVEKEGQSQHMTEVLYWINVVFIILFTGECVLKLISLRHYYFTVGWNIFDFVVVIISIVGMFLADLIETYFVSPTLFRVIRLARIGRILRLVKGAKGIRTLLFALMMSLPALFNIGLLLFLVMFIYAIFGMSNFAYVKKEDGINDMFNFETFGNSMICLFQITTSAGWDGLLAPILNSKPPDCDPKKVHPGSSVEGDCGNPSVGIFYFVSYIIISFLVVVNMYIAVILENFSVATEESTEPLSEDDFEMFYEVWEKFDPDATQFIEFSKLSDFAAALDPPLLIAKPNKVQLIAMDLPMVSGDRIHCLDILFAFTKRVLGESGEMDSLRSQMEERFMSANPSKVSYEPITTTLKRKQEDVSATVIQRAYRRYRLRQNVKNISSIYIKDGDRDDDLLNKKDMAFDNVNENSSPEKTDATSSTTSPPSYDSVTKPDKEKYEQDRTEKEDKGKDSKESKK
Sequence of Nav1.5 (Q14524 whole entry): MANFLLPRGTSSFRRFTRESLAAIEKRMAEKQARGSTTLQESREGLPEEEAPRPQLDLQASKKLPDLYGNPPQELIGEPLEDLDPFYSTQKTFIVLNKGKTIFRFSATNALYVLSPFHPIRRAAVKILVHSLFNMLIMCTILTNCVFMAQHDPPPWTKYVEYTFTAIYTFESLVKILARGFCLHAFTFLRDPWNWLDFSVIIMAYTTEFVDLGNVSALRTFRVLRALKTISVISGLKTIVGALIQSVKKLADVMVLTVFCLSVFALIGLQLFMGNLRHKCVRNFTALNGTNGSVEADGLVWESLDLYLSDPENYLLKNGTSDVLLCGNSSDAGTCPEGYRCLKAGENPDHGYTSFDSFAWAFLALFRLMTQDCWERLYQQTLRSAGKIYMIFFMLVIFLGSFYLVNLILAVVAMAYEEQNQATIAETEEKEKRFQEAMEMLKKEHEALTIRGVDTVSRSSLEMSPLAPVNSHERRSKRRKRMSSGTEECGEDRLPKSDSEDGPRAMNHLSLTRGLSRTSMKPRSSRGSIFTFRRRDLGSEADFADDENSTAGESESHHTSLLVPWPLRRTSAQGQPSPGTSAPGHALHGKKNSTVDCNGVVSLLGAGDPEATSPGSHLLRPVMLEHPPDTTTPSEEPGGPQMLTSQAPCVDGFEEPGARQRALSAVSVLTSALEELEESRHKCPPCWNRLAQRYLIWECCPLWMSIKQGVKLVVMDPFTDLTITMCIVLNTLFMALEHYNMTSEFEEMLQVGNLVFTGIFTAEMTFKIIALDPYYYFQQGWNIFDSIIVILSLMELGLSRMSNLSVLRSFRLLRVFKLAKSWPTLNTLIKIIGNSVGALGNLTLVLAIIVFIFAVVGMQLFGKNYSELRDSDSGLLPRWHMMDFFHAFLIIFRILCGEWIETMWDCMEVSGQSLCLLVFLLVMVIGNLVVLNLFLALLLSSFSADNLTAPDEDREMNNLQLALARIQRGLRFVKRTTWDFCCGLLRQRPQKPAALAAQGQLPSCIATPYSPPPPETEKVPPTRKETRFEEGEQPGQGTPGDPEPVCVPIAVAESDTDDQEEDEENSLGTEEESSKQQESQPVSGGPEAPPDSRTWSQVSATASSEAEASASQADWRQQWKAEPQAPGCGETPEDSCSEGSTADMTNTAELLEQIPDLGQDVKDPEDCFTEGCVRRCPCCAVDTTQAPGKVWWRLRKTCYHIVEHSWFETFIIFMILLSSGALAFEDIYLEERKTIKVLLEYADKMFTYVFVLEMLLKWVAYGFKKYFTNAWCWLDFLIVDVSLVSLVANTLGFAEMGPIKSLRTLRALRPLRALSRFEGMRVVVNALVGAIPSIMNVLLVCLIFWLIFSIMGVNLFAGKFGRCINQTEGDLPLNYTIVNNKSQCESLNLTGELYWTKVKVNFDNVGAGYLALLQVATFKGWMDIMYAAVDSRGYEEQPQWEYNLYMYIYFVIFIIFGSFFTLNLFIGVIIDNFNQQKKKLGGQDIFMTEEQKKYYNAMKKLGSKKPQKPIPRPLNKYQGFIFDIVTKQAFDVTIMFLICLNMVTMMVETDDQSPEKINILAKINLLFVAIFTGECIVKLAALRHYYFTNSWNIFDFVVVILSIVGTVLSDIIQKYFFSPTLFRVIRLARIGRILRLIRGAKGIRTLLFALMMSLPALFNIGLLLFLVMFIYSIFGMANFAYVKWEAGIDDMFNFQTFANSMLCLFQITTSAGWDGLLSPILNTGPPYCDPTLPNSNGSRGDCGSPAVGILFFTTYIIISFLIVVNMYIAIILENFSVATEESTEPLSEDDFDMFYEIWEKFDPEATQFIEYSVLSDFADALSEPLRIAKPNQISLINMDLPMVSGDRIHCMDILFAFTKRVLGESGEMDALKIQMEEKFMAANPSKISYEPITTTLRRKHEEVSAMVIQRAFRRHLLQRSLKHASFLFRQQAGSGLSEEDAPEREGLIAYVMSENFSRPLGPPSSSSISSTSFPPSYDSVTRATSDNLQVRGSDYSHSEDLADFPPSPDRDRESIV
T14 sequence (P16389 whole entry): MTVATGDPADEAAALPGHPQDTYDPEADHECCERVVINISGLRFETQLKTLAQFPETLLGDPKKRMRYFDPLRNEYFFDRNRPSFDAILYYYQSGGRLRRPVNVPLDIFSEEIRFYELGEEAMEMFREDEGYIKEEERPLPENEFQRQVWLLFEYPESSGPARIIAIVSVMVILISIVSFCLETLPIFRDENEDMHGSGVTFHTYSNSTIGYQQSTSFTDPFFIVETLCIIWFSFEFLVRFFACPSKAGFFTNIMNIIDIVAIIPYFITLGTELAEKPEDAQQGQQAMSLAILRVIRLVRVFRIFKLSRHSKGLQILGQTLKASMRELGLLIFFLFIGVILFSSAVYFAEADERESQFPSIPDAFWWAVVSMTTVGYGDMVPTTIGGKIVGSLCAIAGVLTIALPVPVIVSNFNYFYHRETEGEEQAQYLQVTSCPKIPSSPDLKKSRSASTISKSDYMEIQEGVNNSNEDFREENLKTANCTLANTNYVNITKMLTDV
T3 sequence (P63252 whole entry): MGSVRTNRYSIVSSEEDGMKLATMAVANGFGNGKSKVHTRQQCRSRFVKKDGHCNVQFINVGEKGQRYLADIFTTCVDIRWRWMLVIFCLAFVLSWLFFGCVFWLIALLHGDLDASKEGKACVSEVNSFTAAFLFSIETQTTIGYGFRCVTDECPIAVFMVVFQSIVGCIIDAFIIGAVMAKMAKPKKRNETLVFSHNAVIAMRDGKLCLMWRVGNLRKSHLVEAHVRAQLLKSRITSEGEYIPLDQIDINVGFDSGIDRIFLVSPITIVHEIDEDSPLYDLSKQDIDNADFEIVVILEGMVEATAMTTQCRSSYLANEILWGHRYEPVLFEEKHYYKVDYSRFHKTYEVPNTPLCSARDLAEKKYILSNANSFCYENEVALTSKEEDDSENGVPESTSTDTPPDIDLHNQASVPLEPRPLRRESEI

2 (GSEVIRCSGSKQCYGPCKQQTGCTNSKCMNKVCKCYGCG) [compound 2]
Activity of NR2B with peptide, expressed as a percentage of the reference compound ([1]; peptide at 0.2 μM): 118% | Activity of NR2B with peptide (percentage of the reference compound) ([1]; peptide at 20 μM): 72% | Activity of a4b2 with peptide, expressed as a percentage of the reference compound ([2]; peptide at 0.2 μM): 95% | Activity of a4b2 with peptide (percentage of the reference compound) ([2]; peptide at 20 μM): 87% | Activity of Kir2.1 with peptide, expressed as a percentage of the reference compound ([3]; peptide at 0.2 μM): 101% | Activity of Kir2.1 with peptide (percentage of the reference compound) ([3]; peptide at 20 μM): 89% | Activity of Kv2.1 with peptide, expressed as a percentage of the reference compound ([4]; peptide at 0.2 μM): 80% | Activity of Kv2.1 with peptide (percentage of the reference compound) ([4]; peptide at 20 μM): 87% | Activity of Cav2.2 with peptide, expressed as a percentage of the reference compound ([5]; peptide at 0.2 μM): 104% | Activity of Cav2.2 with peptide (percentage of the reference compound) ([5]; peptide at 20 μM): 104% | Activity of Cav2.1 with peptide, expressed as a percentage of the reference compound ([6]; peptide at 0.2 μM): 103% | Activity of Cav2.1 with peptide (percentage of the reference compound) ([6]; peptide at 20 μM): 108% | Activity of 5HT3a with peptide (percentage of the reference compound) [7]: 88% | Activity of 5HT3a with peptide, expressed as a percentage of the reference compound [7]: 92% | Activity of TRPV1 with peptide, expressed as a percentage of the reference compound ([8]; peptide at 0.2 μM): 95% | Activity of TRPV1 with peptide (percentage of the reference compound) ([8]; peptide at 20 μM): 81% | Activity of GABA with peptide, expressed as a percentage of the reference compound ([9]; peptide at 0.2 μM): 104% | Activity of GABA with peptide (percentage of the reference compound) ([9]; peptide at 20 μM): 97% | Activity of Nav1.7 with peptide, expressed as a percentage of the reference compound [10, 19]: 89% | Activity of Nav1.7 with peptide, expressed as a percentage of the reference compound [10, 20]: 74% | Activity of Nav1.7 with peptide (percentage of the reference compound) [10, 19]: 61% | Activity of Nav1.7 with peptide (percentage of the reference compound) [10, 20]: 91% | Activity of hERG with peptide, expressed as a percentage of the reference compound ([11]; peptide at 0.2 μM): 97% | Activity of hERG with peptide (percentage of the reference compound) ([11]; peptide at 20 μM): 76% | Activity of Nav1.5 with peptide, expressed as a percentage of the reference compound [12, 21]: 95% | Activity of Nav1.5 with peptide, expressed as a percentage of the reference compound [12, 22]: 93% | Activity of Nav1.5 with peptide (percentage of the reference compound) [12, 21]: 102% | Activity of Nav1.5 with peptide (percentage of the reference compound) [12, 22]: 101% | Activity of NR2A with peptide, expressed as a percentage of the reference compound ([13]; peptide at 0.2 μM): 102% | Activity of NR2A with peptide (percentage of the reference compound) ([13]; peptide at 20 μM): 95% | Activity of a3b4 with peptide, expressed as a percentage of the reference compound ([14]; peptide at 0.2 μM): 85% | Activity of a3b4 with peptide (percentage of the reference compound) ([14]; peptide at 20 μM): 88% | Activity of TRPA1 with peptide, expressed as a percentage of the reference compound ([15]; peptide at 0.2 μM): 106% | Activity of TRPA1 with peptide (percentage of the reference compound) ([15]; peptide at 20 μM): 92% | Activity of Kv1.1 with peptide, expressed as a percentage of the reference compound ([16]; peptide at 0.2 μM): 114% | Activity of Kv1.1 with peptide (percentage of the reference compound) ([16]; peptide at 20 μM): 68% | Activity of Kv1.2 with peptide, expressed as a percentage of the reference compound ([17]; peptide at 0.2 μM): 34% | Activity of Kv1.2 with peptide (percentage of the reference compound) ([17]; peptide at 20 μM): 39% | Activity of Kv1.3 with peptide, expressed as a percentage of the reference compound ([18]; peptide at 0.2 μM): 8% | Activity of Kv1.3 with peptide (percentage of the reference compound) ([18]; peptide at 20 μM): 1%
